Source: US20050048060A1, “Immunoconjugates” (priority 2002, published 2005)

How the values were obtained:
LS 174T tumor xenografts = assay: Conjugate localization (125I labeled conjugate biodistribution) in nude mice bearing LS 174T tumor xenografts; conditions: mouse, in vivo, iv, 1 mg/kg
Experimental: FIG. 4: Pharmacokinetics of cAb-CEA5::βL and the nonbinding control cAb-Lys3::βL in nude mice (three animals/group). βL conjugate levels in subcutaneous LS 174T colon carcinoma tumors and in normal tissues are shown at 6 hours, 24 hours and 48 hours post-administration. cAb-Lys3::βL served as nonbinding control.
Studies were undertaken in nude mice to establish the extent of cAb-CEA5::β-lactamase conjugate localization in LS 174T tumor xenografts. ^125I labeled cAb-CEA5::β-lactamase (4,728,481 cpm/μg conjugate) or cAb-Lys3::β-lactamase conjugate (2,691,621 cpm/μg conjugate) were injected i.v. (1 mg/kg) into mice (3 animals/group) that had subcutaneous LS 174T carcinoma tumors of about 0.5-1 cm diameter. The amount of radioactivity in the tumors, blood, and several other tissues was determined 6 hours, 24 hours and 48 hours later (FIG. 4). […] In order to see whether the radioactivity measured originated from intact conjugate molecules or degraded material, the enzymatic activity of β-lactamase in targeted tumor, liver and kidney tissue using nitrocefin was assessed. […]
The cAb-CEA::βL conjugate was radioiodinated with carrier-free ^125I using the IODOGEN reagent, following the manufacturer's (Pierce, Rockford, Ill., US) recommended method. […] The tumor, a sample of blood, and a range of other tissues were removed, weighed, and counted in a gamma counter.

[1] = parameters: species or system nude mice
Experimental: Studies were undertaken in nude mice to establish the extent of cAb-CEA5::β-lactamase conjugate localization in LS 174T tumor xenografts. ^125I labeled cAb-CEA5::β-lactamase (4,728,481 cpm/μg conjugate) or cAb-Lys3::β-lactamase conjugate (2,691,621 cpm/μg conjugate) were injected i.v. (1 mg/kg) into mice (3 animals/group) that had subcutaneous LS 174T carcinoma tumors of about 0.5-1 cm diameter. The amount of radioactivity in the tumors, blood, and several other tissues was determined 6 hours, 24 hours and 48 hours later (FIG. 4). […] A rather high accumulation of both cAb-CEA5::βL and cAb-Lys3::βL conjugates in the kidneys (0.41-0.53% ID/g tissue) was also noticed. In order to see whether the radioactivity measured originated from intact conjugate molecules or degraded material, the enzymatic activity of β-lactamase in targeted tumor, liver and kidney tissue using nitrocefin was assessed. […] The blood and normal tissue levels were still high at this time point and, thus, tumor/normal tissue ratios were low. After 24 hours, although the amounts of cAb-CEA::βL conjugate in the tumors had fallen to approximately 1% injected dose/g tumor, the blood and normal tissue levels had fallen more rapidly and, consequently, tumor/normal tissue ratios were in the 10-50 fold range, except for the kidneys where a high amount of radioactivity could still be measured.

LS 174T xenografts = assay: Anti-tumor effect of the prodrug therapy in nude mice with LS 174T xenografts; assay type: in vivo; conditions: conjugate 1 mg/kg i.v.
Experimental: FIG. 5: Therapeutic effect of cAb::βL/CCM combinations in nude mice with LS 174T xenografts. Conjugates (1 mg/kg) were injected i.v. on days indicated by the arrows, and CCM was administered 24 hours later. The therapeutic effects were compared to those of PDM at the MTD.
The anti-tumor effect of giving cAb-CEA::βL conjugate (1 mg/kg body weight) followed 24 hours later by escalating doses of CCM (100, 150, 200 mg/kg) are shown in FIG. 5. […] Therapeutic efficiency was dose-dependent.
Groups of five female athymic nude mice were injected subcutaneously with 2×10^6 LS 174T tumor cells. Ten days later when the tumors reached a size of about 100 mm^3, 1 mg/kg bodyweight of βL conjugates was injected i.v., followed 24 hours later by the prodrug CCM. Treatment with cAb-βL+CCM was carried out on a weekly schedule for a total of three rounds. The animals were monitored twice a week for general health, weight and tumor growth and compared to control groups receiving no treatment. Tumor volumes were calculated using the formula (longest length×perpendicular width^2)/2.

[2] = system: LS 174T human adenocarcinoma cells; assay: In vitro cytotoxicity assay, [3H] thymidine incorporation, conjugate + CCM prodrug; conditions: cells blocked with unconjugated cAb-CEA5 0.1 mg/ml before conjugate

B1: cAb-CEA5-βL (protein)
chain: QVQLVESGGGSVQAGGSLRLSCAASGDTYGSYWMGWFRQAPGKEREGVAAINRGGGYTVYADSVKGRFTISRDTAKNTVYLQMNSLRPDDTADYYCAASGVLGGLHEDWFNYWGQGTQVTVSSAHHSEDPSSKAPKAPMGTPVSEKQLAEVVANTITPLMKAQSVPGMAVAVIYQGKPHYYTFGKADIAANKPVTPQTLFELGSISKTFTGVLGGDAIARGEISLDDAVTRYWPQLTGKQWQGIRMLDLATYTAGGLPLQVPDEVTDNASLLRFYQNWQPQWKPGTTRLYANASIGLFGALAVKPSGMPYEQAMTTRVLKPLKLDHTWINVPKAEEAHYAWGYRDGKAVRVSPGMLDAQAYGVKTNVQDMANWVMANMAPENVADASLKQGIALAQSRYWRIGSMYQGLGWEMLNWPVEANTVVEGSDSKVALAPLPVAEVNPPAPPVKASWVHKTGSTGGFGSYVAFIPEKQIGIVMLANTSYPNPARVEAAYHILEALQHHHHHH
LS 174T tumor xenografts
  amount of conjugate in the tumors: approximately 1 % injected dose/g tumor
[1]
  β-lactamase enzymatic activity in excised tumor tissue: enzymatic activity was intact
  β-lactamase enzymatic activity in kidney tissue: no activity could be measured
  β-lactamase enzymatic activity in liver tissue: no activity could be measured
LS 174T xenografts; 24 hours later CCM 200 mg/kg/injection
  anti-tumor activity at 200 mg CCM/kg/injection: Significant anti-tumor activity including partial regression of the tumors
LS 174T xenografts; 24 hours later CCM 100, 150, 200 mg/kg, weekly, three rounds, vs non-treated or cAb-Lys3::βL + CCM
  anti-tumor effect of the prodrug therapy combination: significant anti-tumor effect
[2]
  prodrug CCM activation on cells saturated with unconjugated cAb-CEA5: activated CCM at marginal levels
